According to paper PMC5764952 (2018):

B1: Untagged murine saposin A (SapA) [mouse] / His6-tagged murine β-galactocerebrosidase (GALC) [modified: glycosylated; glycosylated] [mouse] (parent complex)
chain 1: MGKSLPCDICKTVVTEAGNLLKDNATQEEILHYLEKTCEWIHDSSLSASCKEVVDSYLPVILDMIKGEMSNPGEVCSALNLCQSLQE
chain 2: YVLDDSDGLGREFDGIGAVSGGGATSRLLVNYPEPYRSEILDYLFKPNFGASLHILKVEIGGDGQTTDGTEPSHMHYELDENYFRGYEWWLMKEAKKRNPDIILMGLPWSFPGWLGKGFSWPYVNLQLTAYYVVRWILGAKHYHDLDIDYIGIWNERPFDANYIKELRKMLDYQGLQRVRIIASDNLWEPISSSLLLDQELWKVVDVIGAHYPGTYTVWNAKMSGKKLWSSEDFSTINSNVGAGCWSRILNQNYINGNMTSTIAWNLVASYYEELPYGRSGLMTAQEPWSGHYVVASPIWVSAHTTQFTQPGWYYLKTVGHLEKGGSYVALTDGLGNLTIIIETMSHQHSMCIRPYLPYYNVSHQLATFTLKGSLREIQELQVWYTKLGTPQQRLHFKQLDTLWLLDGSGSFTLELEEDEIFTLTTLTTGRKGSYPPPPSSKPFPTNYKDDFNVEYPLFSEAPNFADQTGVFEYYMNNEDREHRFTLRQVLNQRPITWAADASSTISVIGDHHWTNMTVQCDVYIETPRSGGVFIAGRVNKGGILIRSATGVFFWIFANGSYRVTADLGGWITYASGHADVTAKRWYTLTLGIKGYFAFGMLNGTILWKNVRVKYPGHGWAAIGTHTFEFAQFDNFRVEAAR

Variants of: B1
Assay: pull-down (immobilised GALC, Coomassie SDS-PAGE, quantified); in the presence of Tween-20; n = 3; read off a plot

Variant	ratio to parent
chain 1 E52K	~0.06
chain 1 E68K	~1.1
chain 1 D63K	~0.03
chain 1 K66E	~0.77
chain 1 D55K	~0.12
chain 1 K22E	~0.05
chain 1 L31N	~0.13
chain 1 E28K	~0.06
chain 1 E35R	~0.21

Further lines, results first:

ratio to parent	Variant
~0.04	chain 1 L31R
~0.81	chain 1 W40F
~0.77	chain 1 W40S
~0.8	chain 1 W40D
~0.08	chain 1 Q27K
